Measured values: patent US20240150494A1

Assays:
[1] = target: G2-Rituximab (galactosylated afucosylated glycoform of rituximab) (human); test: SPR, 1:1 Langmuir global kinetic fit, 1024 to 32 nM in 2-fold steps
[2] = target: G2F-Rituximab (galactosylated fucosylated glycoform of rituximab) (human); test: SPR (Biacore T200), 1:1 Langmuir fit
[3] = target: G2-Rituximab (galactosylated afucosylated glycoform of rituximab) (human); test: SPR (Biacore T200), 1:1 Langmuir fit
[4] = target: G2-Rituximab (galactosylated afucosylated glycoform of rituximab) (human); test: flow cytometry of yeast displaying C11, stained with IgG1 G2 (Alexa647) and IgG1 G2F (FITC)
[5] = target: G2-Rituximab (galactosylated afucosylated glycoform of rituximab) (human); test: SPR; drawn table, KD (G2)

Binder | Kd [1] [nM] | Kd [2] [nM] | Kd [3] [nM] | number printed in the lower right quadrant (IgG1 G2 Alexa647 positive, IgG1 G2F FITC negative) [4] | Kd [5] [nM]
D3 (VHH, not shown: small tags and cut ends) VHH: QVQLQESGGGLVQAGGSLRLSCAASGNISADRYMGWYRQAPGKEREFVAAIGYGGTTYYADSVKGRFTISRDNAKNTVYLQMNSLKPEDTAVYYCAVVDGAHSRHRYWGQGTQVTVSS | 353 | 1900 | 323 |  | 
E2 (VHH, not shown: small tags and cut ends) VHH: QVQLQESGGGLVQAGGSLRLSCAASSYISRYHTMGWYRQAPGKERSFVAGITWGGLTYYADSVKGRFTVSRDNAKNTVYLQMNSLKPEDTAVYYCAVDGGTRADPYHYYWGQGTQVTVSS |  |  |  |  | 4740

Now from value to binder:

Kd [1] [nM] | Kd [2] [nM] | Kd [3] [nM] | number printed in the lower right quadrant (IgG1 G2 Alexa647 positive, IgG1 G2F FITC negative) [4] | Kd [5] [nM] | Binder
 |  | 22800 | 4 |  | C11 (VHH, not shown: small tags and cut ends) VHH: QVQLQESGGGLVQAGGSLRLSCAASGYISRYHTMGWYRQAPGKEREFVAGITWGGSTYYADSVKGRFTISRDNAKNTVYLQMNSLKPEDTAVYYCAVDGGTYADPYHYYWGQGTQVTVSS
 |  |  |  | 2480 | E4 (VHH, not shown: small tags and cut ends) VHH: QVQLQESGGGLVQAGGSLRLSCAASPYISRYHTMGWYRQAPGKEREFVAAITWGGSTYYADSVKGRFTISRDNAKNTVYLQMNSLKPEDTAVYYCAVDGGTYADPYHYYWGQGTQVTVSS
